Assay results from the DeepSol protein solubility set.

Test: soluble on expression in E. coli; label from the status in PepcDB or PDB records

| Sequence | soluble on expression in E. coli |
| --- | --- |
| MGHHHHHHSHMTAYSVGMGAEIQLCSHPIGLSKNQSRNPTKTLDSAKILACSLAQSKQPIRWEADPYNNIVYSIYYMELTLPTTPCRMLPQYQEKYGAVGRGTPYWIYYRKTLYLEIPLSERVGLKGGDTKMGIQDGTHQRDPPFYKPTPPPHIPPVLEKHTGWSYLCGYTWWTP | not soluble |
| MIEMLLYEDTRMRAVEILRSLPIGNSGVSGLVQLAATLGASVEFRPSIPPFPESLSKKMNKTQKYTSTQMSQKFDNASHSPTK | not soluble |
| MGSDKIHHHHHHMAARLREFRRAIGDPDREEFARSIGVSKTTLASYERGESEPTASVLFAYREKHGADVLWLVGGEGEMRGSQLSSAAVAERDFVLMPQYDVCASAGTGRLPVNQMPTSETAFERKFLRDLGGAPDHCFLMWSTGDSMLPSIPDNALLIVDASQTTVDHGRIYVFSVGNAVLVKRANWRMDGRLDLISDNTAGKYPVETFDANRVEDLAVVGRVIFVGHPP | not soluble |
| GPGSMFYPNSPQTSPQLTQIPYGQQYAMMQRQIQQPYHPFATTEPQARLYPYHYQGPIQQEQGGFITQQSTAASPQYVQMRVTPVDQSIMSGYPNQTANGSSSSSFNYNIHPQQQQQQQQQQQLRHHAMPVGSVPLQDDRYRKQLIVNYLAPDVTSTDLHELFSRFGELDGARIIYDKQTNMSKGYGFVYFCHAEDAKEAVERMSGYEFHGKWLKVGYSTNPLNIVPSNSSPYVHAGSRGAAG | not soluble |
| MSEQFEMIAKTFQGLEEILAEELTTLGANDIQIGRRMVSFTGDKRMMYKANFCLRTAIRILKPIKNFTAKDADEVYNQIQAIPWEEYLDVNKTFAIDAVVFSEEFRHSKFVSYKVKDAIVDYFRKKTGKRPSVRINNPDVLLNIHIAQTTCTLSLDSSGESLHRRGYRQEQVDAPLNEVLAAGMLLMTGWRGECDLIDPMCGSGTIPIEAALIARNIAPGVFRKGFAFEKWVDFDSEMFDEIYNDDSQEREFTHKIYGYDNNPKANEIATHNIKAAGVSKDVTLKLQPFQQFEQPQEKSIIVMNPPYGERISTNDLLGLYQMIGERLKHAFVGNEAWVLSYREECFDQIGLKPSKKVPLFNGALECEFRKYEIFDGKYKEFKSQEGEGEEKKETEGNYDTSRPRERKEFKPRGEGEFKPRREGEFKPRREGEFKPRKEGDFKPRREEGSFTRDDRDRKPRGEFRGERDSRAPREFRGNREPRIPKKEEE | not soluble |
| MGSDKIHHHHHHMPTSALDGKDTAAIQAATAEVAVYDRSNWGLIRVSDDDRLRFLHNQSTNDFQSLKPGQGCETVMVTSTARTIDLVSSYVLNDAVILLVSSSRREFLLQWLDRYIFFADKVQLTDITDETATLSIIGPGSDAVVEKLGAGEIIGQPHGNHITIDGGVVAAVGSGLASPGYTLILPVSQKQQVWQQILDSGAVELSDRAWDTLRILQGRPAPDAELTDDYNPLEVGLWQTISFSKGCYIGQETIARLNTYKGVKQHLWGIRLNAPAEIGDSINIGDEKVGKLTSYTETPDGYFGLAYIRSKAGGVGLKVQVGNSEGEVVAIPFVSHEYP | not soluble |
| MGSDKIHHHHHHMEDREQLYTLLAQKDWDAIGKIIYKNKKAKKQDPFLTQVTTFFEAEFFEFTRPLPPAERAKQFEHTNLIIELGQHGFSQAFVDNFVDERLKLMQETQHSALLNYAQTYQHRPLAQRIIASFINTKPEAVAASLRENMTIRATDVQPGKAKTIRLFKSKQEEHFYEAVRRVFPTYHPYPNVALSCVLDYQAIKDSLSEQAKSYFFKAIIDSVVFDVGSGYEPKYFIELDSNFHDAAQAQANDKMKDDIFRAANTKLIRIRPLNSKASSIEEFEKLVREVMRQL | not soluble |
| MNWEQKSSMLKKKIERIKEIETTLWGNLEKCELCPRKCGVDRYRTTGICGLPARAKISNAVLHFGEEPPISGKTGAGTVFFSGCNMKCVYCQNMGFSQKGIGTEVEVEDLAEIFLILQKHGAKTLNLVTPTPHLPFIISALRIAIENGLNLPIVYNTSGYEDPEILRLLEGVVDIYLSDVRYSDNEASKKYSKTPDYWTVVQKAIVEMFRQVGIFDEEKMKGLIVRILVLPGNVVDYSEIFSFLSSLSTRIPLSIMNQYIPHFDAQKFPEISRKLNQNEYEKILELAERYGFTEGWYQSEEKERVTTRGLKEISEKLQFLRLKTHNSY | not soluble |
| MSLNSSEHKIRITPLGGLGEIGGNISVFETNKDAIIVDIGMSFPDGTMHGVDIIIPDFDYVRKIKDKIRGIVITHAHEDHIGAVPYFFKEFQFPIYATPLALGMISNKFEEHGLKAERKWFRPVEKRRVYEIGEFDIEWIHITHSIIDASALAIKTKAGTIIHTGDFKIDQTPIDGYPTDLGRLAYYGEEGVLCLLSDSTNSYKEGYTKSESSVGLTFDQIFARTKGRVIMSTFSSNIHRVYQAITYGLKYGRKVCVIGRSMERNLYTTMELGYIKLDRKIFIDADEVSKYKDNEVLIVTTGSQGETMSALYRMATDEHKFIKIKPTDQVIISAKAIPGNEASVSAVLDYLLKAGAKVAYQEFSEIHVSGHASIEEQKLMLTLTKPKFFLPVHGEYNHITKHKETAMKCGIPERNIYLMSDGDQVELEGHHHHHH | soluble |
| MEIPSYASNIQPYGSQSGTKIASENDNAKSVSLSGDNSRSVSRTDKLSEHFSEQVRARQQESAETAMAQAKQRQRLNEEQLAKMVEQMNEFVKSINKGLSFRLDRESGREVVTIYEASTGDIIRQIPEEEMLEVLRRLAREQDHRSGLLMAKV | not soluble |
| MAVLKGLRPRVPKGLKSPPEPWGWPLLGHVLTLGKNPHLALSRMSQRYGDVLQIRIGSTPVLVLSRLDTIRQALVRQGDDFKGRPDLYTSTLITDGQSLTFSTDSGPVWAARRRLAQNALNTFSIASDPASSSSCYLEEHVSKEAKALISRLQELMAGPGHFDPYNQVVVSVANVIGAMCFGQHFPESSDEMLSLVKNTHEFVETASSGNPLDFFPILRYLPNPALQRFKAFNQRFLWFLQKTVQEHYQDFDKNSVRDITGALFKHSKKGPRASGNLIPQEKIVNLVNDIFGAGFDTVTTAISWSLMYLVTKPEIQRKIQKELDTVIGRERRPRLSDRPQLPYLEAFILETFRHSSFLPFTIPHSTTRDTTLNGFYIPKKCCVFVNQWQVNHDPELWEDPSEFRPERFLTADGTAINKPLSEKMMLFGMGKRRCIGEVLAKWEIFLFLAILLQQLEFSVPPGVKVDLTPIYGLTMKHARCEHVQARRFSINHHHH | soluble |
| HETLTSPPLREGRYIMAVTGCGPVEGVKEDGAFAFRGIPYAKPPVDRLRWKPAELIDDINMCWNDTLQTHNSSVVCTQRLGNGTTVGDEDCLYLDVVTPHVRYNNPLPVVVLIGAESLAGPSPGILRPSARYSRSHDVIFVRPNFRLGVFGFLALDALTKEAHPPTSGNYALTDIIAVLNWIKLNIVHFGGDPQSVTLLGHRAGATLVTLLVNSQKVKGLYTRAWASSGSAILPGKPLSESGKQNEQLMATLECADIQCLREASSERLWAATPDTWLHFPVDLPQPQEANASGSRHEWLVLDGDVVFEHPSDTWKREQANDKPVLVMGATAHEAHTEKLRELHANWTREEVRAYLENSQIGALGLTDEVIEKYNASSYASLVSIISDIRSVCPLLTNARQQPSVPFYVVTQGEGPDQLATVDADVQAILGRYEPHTVEQRRFVSAMQQLFYYYVSHGTVQSFVQNRRVINVGQDAQPEEDYLPCNYWISKDIVPRYARVD | soluble |
| MSDDARFQQLNCWLDSCLPELFVAEGWGEVPPAELIPASSDASFRRYFRWQGGDRSLVVMDAPPPQEDCRPFVKVAGLLAGAGVHVPRILAQDLENGFLLLSDLGRQTYLDVLHPGNADELFEPALDALIAFQKVDVAGVLPAYDEAVLRRELQLFPDWYLARHLGVELEGETLARWKRICDLLVRSALEQPRVFVHRDYMPRNLMLSEPNPGVLDFQDALHGPVTYDVTCLYKDAFVSWPEPRVHAALNRYWKKATWAGIPLPPSFEDFLRASDLMGVQRHLKVIGIFARICHRDGKPRYLGDVPRFFRYLETAVARRPELAELGELLASLPQGAEA | not soluble |
| GAMAFDWDAYLEETGSEAAPAKCFKQAQNPPNNDFKIGMKLEALDPRNVTSTCIATVVGVLGSRLRLRLDGSDSQNDFWRLVDSTEIHAIGHCEKNGGMLQPPLGFCMNASSWPGYLCKILNNAMVAPEEIFQPEPPEPEENLFKVGQKLEAVDKKNPQLICCATVDAIKDDQIHVTFDGWRGAFDYWCNYRSRDIFPAGWCARSCHPMQPPGHKSRMDSSSSKQRCPRPRYTVVAESEAMVPASPATAHFHPNCKGGPFINNSK | soluble |
| MDHALFTHFVGRPRHCRLEMLILDEQVSKRSWDTTVYHRRRKHLPRRRAPCGPQRPAEIPKRRKKAAVLLFWHDLCWLFRRLFFPREDSEPLMSDPARSPEEEELEHHHHHH | not soluble |
| MGSDKIHHHHHHMMTTVKDSTPAARELYLDLLVRILLNTIYQDPAINPGVRPMVVEPFNPKTRAIGKDWPTQAHTMVGQARLENLRQLSQQVLDDGIVGDFIETGVWRGGCCILMRGVLAANQIHDRKVYVADSFAGLPAPNVELYPRDTGWDLHEFKELAVSLQTVKDNFSRYGLLDEQVVFVEGMFSDTLPSLSAGPFALLRLDGDLYESTIVALNSLYPKLSRGGVVIIDDRALDPCRRAVIDFRDKHGITAPMQEVDWTGSWWRKE | not soluble |
| MNMTKNAFQFGIEPVRITDTDNIQVNEGLPTNADPQVYALQLAKTVKAMLNGVLKDAQDNIPFPVEVLPTRNSLPTPIIAHTLADRSVLVPVRGGKRPEVVTAPSGTEITVEPIEQAILVSHQTKLWDQKSTTGFTQGTLQQDALNICDNVIRTINSKMVDVLESSKLLKTVELPALTGSLTAKADAIMDALYENTESSFGSEVSDYGIIAHESHLKALSRLAAKQGFGGEDAIVDMLGTDVAYYNGEDRGVFMMAKRFTALSFGCFRHDGESITVVLSRDGDSQSHDLEILGKVFVVAEAATTIKMGTGSATAVLPVVKRLSFTKEAN | not soluble |
| GAMEDKVDAIREAIARNPQEIFQYVRLSQVKRDDKVLGYRVSPGKDPVLFESIGLQDGDMAVALNGLDLTDPNVMNTLFQSMNEMTEMSLTVERDGQQHDVYIQF | soluble |
| MSLELKVSLDNITMTAYIKSKKYLAMKQLIETHLAITVQTAMTDMFRATTGDGIHVVLHMNYDKQKGQDRKARPFRLEFNPNKLRLVDSEIIDTIIPFLEDISISRADLAFDLFEVDCSEFVLEKKGRPTATKEFRSSTGTLETKYLGAPRSEKQVRLYNKKKEQLQNGTDKDKDFASQFKHWWRLEFQLRSRSIDEIFEVIDTIIFKPFNLKGLSIETQIYLTALIHDKNIWKKLHRNTRARYKKILETHQTSDTDYLGLLKDLLKHERPRLENQLAYYGGRIDKNSFQPFCEGHHHHHH | soluble |
| MQSLDIKPTVGLIACCECGVAIEPNPANMCSGCLRSRVDITEGITRQCTIYMCKFCDRYFVPPSAWMRAELESKELLSICLKKLKPMLTKVRLTDACFVWTEAHSKRIKVKITIQKEVFTNTILQQAVVVEFTVHSQLCDDCRRAEAKDFWRACVQVRQRAEFKKTLFYLEQLLLKHSAHKECTGVKPVPTGIDFYFAKQQEARKFVDFLMTVLPCKYHYAQELVSHDTKNNTYDYKHTFCVEIVPICRDNIVCLPKKQAQQYGNMSQIVLCLRVSNVITLIDPNNLQLVDVQATNFWREPFDSLCGPKQLTEFYVLDVEPVNNFERKAGHGYVSKKHELADVWLVRSDQVGMSDAQSLSARTHIGHLLSPGDLVMAFDMKNCNVNNATFDAMNIDNVPDAIIVRKVFDRTRRTAKRQWKLKRLVVDGNIVGNETASVADEFQGFMEDIEEDALMREKINIYKDAEKGPNVDGDDAEDHPDAPTLAEMLDDLKFDDEEMKEAESAEDDEAMQE | not soluble |
